Assay results taken from PMC12700558, “Aggregation shifts amyloid-β peptides from synaptogenic to synaptotoxic” (The Journal of Clinical Investigation, 2025).

What was measured:
[1] = test system: human neurons cocultured with mouse glia; experiment: Aβ42 fractionation experiment, MTT assay of supernatant and pellet; assay type: cell-based; conditions: fractions of Aβ42 preaggregated at 37°C for 24 hours, 20,000g 15 minutes; 0.2 μM chronic, DIV45
Description: Aggregation mixtures were centrifuged at 20,000g for 15 minutes at 4°C. The supernatant (enriched in monomer, small oligomers and residual larger species) was removed without disturbing the pellet. The pellet (large aggregates and high-molecular-weight oligomers) was resuspended in DMSO to the original volume. Supernatant and the resuspended pellet were administered to neurons, independently, at the concentration of 0.2 μM following the same protocol of administration used in this study (Figure 1A) and described above.

human neurons = experiment: NLS-TdTomato cytotoxicity assay (cytoplasmic leakage of NLS-TdTomato); conditions: 5% DMSO or 200 μM hydrogen peroxide, each applied for 4 hours, DIV30
Description: The MTT assay employs yellow tetrazolium dye that is reduced to a purple formazan crystal by viable cells with active metabolism ([21]). Because it measures metabolic activity in all cells, this assay serves as a broad cytotoxicity read out for the entire glia/neuron coculture system. The amount of formazan produced is then measured because it is directly proportional to the number of viable cells ([21]) (Figure 1B and Supplemental Figure 1A). The nuclear localization TdTomato assay, conversely, enables monitoring of cellular stress by tracking the localization of fluorescent TdTomato fused to a nuclear localization signal. Under healthy conditions, the nuclear localization signal directs the NLS-TdTomato to the nucleus. When toxicity in a cell causes a reduction in ATP levels, NLS-TdTomato leaks out of the nucleus into the cytoplasm, which we scored as an index of toxicity (Figure 1, C and D, and Supplemental Figure 1, B–D). Because the reporter is expressed only in neurons, this assay specifically assesses neurotoxicity within the coculture. We developed this assay because it can be performed on live cells and reflects decreases in ATP levels in these cells. […]
To assess neuronal cytotoxicity induced by Aβ peptides, we employed a novel Td-Tomato cytotoxicity assay that we developed. […] Neurons displaying cytoplasmic Td-Tomato were counted as indicators of cytotoxicity. […]

Compound	Loss of viability, MTT assay (in words) [1]	Validation of the NLS-TdTomato assay: nuclear-to-cytoplasmic shift of NLS-TdTomato (in words) (human neurons)
pellet: pellet of centrifuged preaggregated Aβ42, large aggregates and high-molecular-weight oligomers, resuspended in DMSO	same loss of viability	
OO [hydrogen peroxide]		rapidly induced the nuclear-to-cytoplasmic shift of NLS-TdTomato
supernatant: supernatant of centrifuged preaggregated Aβ42, enriched in monomer, small oligomers and residual larger species	same loss of viability	
